Experimental data: patent publication US20130273143A1 (UNIVERSITY OF CINCINNATI, published 2013)

Target: T1, Bcl-2 (mouse, UniProt P10417 1-236)
T1 construct: Endogenous protein from wild-type mouse heart homogenate
Test: co-immunoprecipitation from WT mouse heart homogenate with anti-Hsp20 antibody, immunoblot with anti-Bcl-2
Description: Mouse heart homogenates are immunoprecipitated with anti-Hsp20 (d) or anti-Bax antibodies (e). Proteins are separated on SDS-PAGE gels and probed with anti-Bax (d1) or anti-Hsp20 antibodies (e1). Then, membrane (d1) is stripped and re-probed with anti-Bcl-2(d2); subsequently, this membrane (d2) is re-stripped and re-probed with anti-Hsp20 (d3). Similarly, membrane (e1) is stripped and re-probed with anti-Bax antibodies (e2). […] Homogenates are obtained from pre-ischemic/reperfused (g and i) and post-ischemic/reperfused (h and j) WT and TG hearts that are subjected to occlusion of LAD artery for 30 minutes and reperfusion for 24 hours. Homogenates are extracted by use of a solubilization solution of 7 mol/L urea, 2 mol/L thiourea, 4% CHAPS, 20 mmol/L DTT, 20 mmol/L spermine, and 1 mmol/L PMSF. Extract is centrifuged (100 000 g, 1 hour, at 10° C.), and 500 μg from each preparation is separated by 2D electrophoresis, using isoelectric focusing strips (Immobiline Drystrips, 18 cm, pH 4 to 7). […]
Association of Hsp20 with Bax and Bcl-2 is studied using Dynabeads Protein G (Dynal Biotech) according to the manufacturer's instructions. […] Finally, the proteins are eluted off (using 0.1 mol/L citrate), and their identity is determined by immunoblotting.

T1 sequence (P10417 whole entry): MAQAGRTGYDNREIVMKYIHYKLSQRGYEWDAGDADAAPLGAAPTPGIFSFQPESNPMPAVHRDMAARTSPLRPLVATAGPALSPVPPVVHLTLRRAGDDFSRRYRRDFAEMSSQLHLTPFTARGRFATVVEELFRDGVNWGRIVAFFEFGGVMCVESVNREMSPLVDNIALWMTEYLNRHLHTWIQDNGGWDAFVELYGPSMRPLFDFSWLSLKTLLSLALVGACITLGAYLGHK

binding result: no binding
B1: Heat-Shock Protein Hsp20 (other, mouse, UniProt Q5EBG6 1-162, looked up)
chain: MEIPVPVQPSWLRRASAPLPGFSAPGRLFDQRFGEGLLEAELASLCPAAIAPYYLRAPSVALPTAQVSTDSGYFSVLLDVKHFLPEEISVKVVDDHVEVHARHEERPDEHGFIAREFHRRYRLPPGVDPAAVTSALSPEGVLSIQATPASAQAQLPSPPAAK
notes: Endogenous protein from wild-type mouse heart homogenate, used in co-immunoprecipitation; also called mcHsp20
